Results as given in patent US20070104732A1 (published 2007).

Experiments:
Experiment in all cases: cell-based or functional assay
[1] = target: EGFR-Ecoil pseudoreceptor (UniProt P00533)
[2] = target: cellular proteins integrins
[3] = target: EGFR-Ecoil pseudoreceptor (UniProt P00533 646-1210)

K-coil soluble peptide
inhibition of AdFK4m/GFP mediated GFP gene transfer in 293E cells after pre-incubation with 2 ug K-coil soluble peptide, MOI 0.05 [1]: 80%

Modified fiber FK4mm-RGD of AdFK4mmRGD/GFP (S->E at aa 408, P->A at aa 409, RGD motif in the HI-loop, K4 K-coil at the C-terminus) (from UniProt P11818 1-581)
transduction efficiency of AdFK4mmRGD/GFP in HeLa-rtTA and A549-tTA cells relative to AdFK4m/GFP (GFP expression, flow cytometry) [2]: 3 to 6 fold
transduction of 293E cells by AdFK4mmRGD/GFP relative to AdFK4m/GFP (GFP expression, flow cytometry) [2]: 2 to 3 times

B1: Chimeric adenoviral fiber FK4m of AdFK4m/GFP (S->E at aa 408, K4 K-coil at the C-terminus) (other)
chain (part 1 of 2): MKRARPSEDTFNPVYPYDTETGPPTVPFLTPPFVSPNGFQESPPGVLSLRLSEPLVTSNGMLALKMGNGLSLDEAGNLTSQNVTTVSPPLKKTKSNINLEISAPLTVTSEALTVAAAAPLMVAGNTLTMQSQAPLTVHDSKLSIATQGPLTVSEGKLALQTSGPLTTTDSSTLTITASPPLTTATGSLGIDLKEPIYTQNGKLGLKYGAPLHVTDDLNTLTVATGPGVTINNTSLQTKVTGALGFDSQGNMQLNVAGGLRIDSQNRRLILDVSYPFDAQNQLNLRLGQGPLFINSAHNLDINYNKGLYLFTASNNSKKLEVNLSTAKGLMFDATAIAINAGDGLEFGSPNAPNTNPLKTKIGHGLEFDSNKAMVPKLGTGLSFDSTGAITVGNKNNDKLTLWTTPAPEPNCRLNAEKDAKLTLVLTKCGSQILATVSVLAVKGSLAPISGTVQSAHLIIRFDENGVLLNNSFLDPEYWNFRNGDLTEGTAYTNAVGFMPNLSAYPKSHGKTAKSNIVSQVYLNGDKTKPVTLTITLNGTQETGDTTPSAYSMSFSWDWSGHNYINEIFATSSYTFSYIAQE
chain (part 2 of 2): KVSALKEKVSALKEKVSALKEKVSALKE
transduction efficiency (GFP expression, flow cytometry) of AdFK4m/GFP in 293E cells compared with 293 cells, MOI 0.01 [3]: 7 fold
transduction efficiency (GFP expression, flow cytometry) of AdFK4m/GFP in 293E cells compared with 293 cells, MOI 0.05 [3]: 24 fold
transduction efficiency (GFP expression, flow cytometry) of AdFK4m/GFP in 293E cells compared with 293 cells, MOI 0.5 [3]: 11 fold
transduction efficiency (GFP expression, flow cytometry) of AdFK4m/GFP in 293E cells compared with 293 cells, MOI 0.8 [3]: 8 fold
